Consider three molecules from publication doi:10.1101/2025.05.28.656718 (bioRxiv, 2025).

Sequences and labels used below:
B1: Recombinant SARM1 (affinity tags removed by TEV protease) (natural protein, human, UniProt Q6SZW1 28-724, looked up)
chain: LAVPGPDGGGGTGPWWAAGGRGPREVSPGAGTEVQDALERALPELQQALSALKQAGGARAVGAGLAEVFQLVEEAWLLPAVGREVAQGLCDAIRLDGGLDLLLRLLQAPELETRVQAARLLEQILVAENRDRVARIGLGVILNLAKEREPVELARSVAGILEHMFKHSEETCQRLVAAGGLDAVLYWCRRTDPALLRHCALALGNCALHGGQAVQRRMVEKRAAEWLFPLAFSKEDELLRLHACLAVAVLATNKEVEREVERSGTLALVEPLVASLDPGRFARCLVDASDTSQGRGPDDLQRLVPLLDSNRLEAQCIGAFYLCAEAAIKSLQGKTKVFSDIGAIQSLKRLVSYSTNGTKSALAKRALRLLGEEVPRPILPSVPSWKEAEVQTWLQQIGFSKYCESFREQQVDGDLLLRLTEEELQTDLGMKSGITRKRFFRELTELKTFANYSTCDRSNLADWLGSLDPRFRQYTYGLVSCGLDRSLLHRVSEQQLLEDCGIHLGVHRARILTAAREMLHSPLPCTGGKPSGDTPDVFISYRRNSGSQLASLLKVHLQLHGFSVFIDVEKLEAGKFEDKLIQSVMGARNFVLVLSPGALDKCMQDHDCKDWVHKEIVTALSCGKNIVPIIDGFEWPEPQVLPEDMQAVLTFNGIKWSHEYQEATIEKIIRFLQGRSSRDSSAGSDTSLEGAAPMGPT
B2: Recombinant PKM1 (His-SUMO tag removed) (enzyme)
chain: not shown
B3: Recombinant PKM2 (His-SUMO tag removed) (enzyme)
chain: not shown

For one assay, the target named is His-tagged PKM1 (human, UniProt P14618-2 1-531). Description: AlphaScreen or HTRF. (In Alpha technology, singlet oxygen from a donor bead excites a nearby acceptor bead.)
The target of assay [1] is B1. Description: SPR. For orientation: SPR reads the build-up and loss of mass on a sensor chip optically.

The term IC50 denotes the concentration that gives 50% inhibition. Low readings indicate higher potency, high ones lower potency. Molecule B1 had an IC50 with His-tagged PKM1 of 3460 nM. That is a single-digit micromolar value.
As usually defined, the Kd is the constant that tells how readily two partners part at equilibrium. Consider B2, for which the Kd in assay [1] is 2890 nM.
On to B3, for which the Kd in assay [1] was determined as 1310 nM.
